Results on five substances are retold here after article PMC6628420.

The target of the experiment is CD11b, cellular receptor of LukAB, on PMNs (HL-60 cells differentiated with DMSO) (human (endogenous in HL-60)) (UniProt P11215).
Turning to “LukAB heterodimer LukA D39A / LukB R23E (complex)”, the reversal of the toxicity of 0.42 nM LukABWT on PMNs by the mutant (0.4 pM-13 nM), set up as competition with LukABWT for receptor binding; mutant/WT molar ratio at 50% reversal (mutant/WT molar ratio) came to 0.17.

Take “LukAB heterodimer LukA D39R / LukB R23E (complex)”: the reversal of the toxicity of 0.42 nM LukABWT on PMNs by the mutant (0.4 pM-13 nM), set up as competition with LukABWT for receptor binding; mutant/WT molar ratio at 50% reversal (mutant/WT molar ratio) is more than 30.

Take “LukAB heterodimer LukA wild type / LukB K12A/K19A/R23A (complex)”: the reversal of the toxicity of 0.42 nM LukABWT on PMNs by the mutant (0.4 pM-13 nM), set up as competition with LukABWT for receptor binding; mutant/WT molar ratio at 50% reversal (mutant/WT molar ratio) is more than 30.

For the substance “LukAB heterodimer LukA wild type / LukB R23E (complex)”, the reversal of the toxicity of 0.42 nM LukABWT on PMNs by the mutant (0.4 pM-13 nM), set up as competition with LukABWT for receptor binding; mutant/WT molar ratio at 50% reversal (mutant/WT molar ratio) amounted to 0.64.

As for “LukAB heterodimer LukA wild type / LukB with the N-terminal 30 residues of HlgB (complex)”, the reversal of the toxicity of 0.42 nM LukABWT on PMNs by the mutant (0.4 pM-13 nM), set up as competition with LukABWT for receptor binding; mutant/WT molar ratio at 50% reversal (mutant/WT molar ratio) worked out at 0.18.
